Results published in paper PMC6335422 (Nature Communications, 2019).
Primed or numbered codes have the meaning given here. Where no end group is shown, it is not given here. SUMO″ = SUMO fusion tag (N-terminal); SUMO = SUMO tag, N-terminal

B1: SUMO-tagged Mmi1 106-122 (domain or fragment, S. pombe, UniProt O74958 106-122, looked up)
chain: YGHSYEWPYFRSLRRES
notes: source: E. coli BL21 (Gold), purified (Ni-chelating resin, size-exclusion chromatography); not shown: SUMO, N-terminal, kept
B2: SUMO-tagged Mmi1 95-122 Y97A (domain or fragment, S. pombe, UniProt O74958 95-122, looked up)
chain: GKADFSRHCTDYGHSYEWPYFRSLRRES
notes: also called Mmi1 Y97A; source: E. coli BL21 (Gold), purified (Ni-chelating resin, size-exclusion chromatography); not shown: SUMO, N-terminal, kept
B3: SUMO-tagged Mmi1 95-122 F99A (domain or fragment, S. pombe, UniProt O74958 95-122, looked up)
chain: GKYDASRHCTDYGHSYEWPYFRSLRRES
notes: also called Mmi1 F99A; source: E. coli BL21 (Gold), purified (Ni-chelating resin, size-exclusion chromatography); not shown: SUMO, N-terminal, kept
B4: SUMO-tagged Mmi1 95-122 F115A (domain or fragment, S. pombe, UniProt O74958 95-122, looked up)
chain: GKYDFSRHCTDYGHSYEWPYARSLRRES
notes: also called Mmi1 F115A; source: E. coli BL21 (Gold), purified (Ni-chelating resin, size-exclusion chromatography); not shown: SUMO, N-terminal, kept
B5: SUMO-tagged Mmi1 95-122 H108A (domain or fragment, S. pombe, UniProt O74958 95-122, looked up)
chain: GKYDFSRHCTDYGASYEWPYFRSLRRES
notes: also called Mmi1 H108A; source: E. coli BL21 (Gold), purified (Ni-chelating resin, size-exclusion chromatography); not shown: SUMO, N-terminal, kept
B6: SUMO-tagged Mmi1 95-122 R119A (domain or fragment, S. pombe, UniProt O74958 95-122, looked up)
chain: GKYDFSRHCTDYGHSYEWPYFRSLARES
notes: also called Mmi1 R119A; source: E. coli BL21 (Gold), purified (Ni-chelating resin, size-exclusion chromatography); not shown: SUMO, N-terminal, kept
B7: SUMO-tagged Mmi1 95-122 S100A (domain or fragment, S. pombe, UniProt O74958 95-122, looked up)
chain: GKYDFARHCTDYGHSYEWPYFRSLRRES
notes: also called Mmi1 S100A; source: E. coli BL21 (Gold), purified (Ni-chelating resin, size-exclusion chromatography); not shown: SUMO, N-terminal, kept
B8: SUMO-tagged Mmi1 95-122 T104A (domain or fragment, S. pombe, UniProt O74958 95-122, looked up)
chain: GKYDFSRHCADYGHSYEWPYFRSLRRES
notes: also called Mmi1 T104A; source: E. coli BL21 (Gold), purified (Ni-chelating resin, size-exclusion chromatography); not shown: SUMO, N-terminal, kept
B9: SUMO-tagged Mmi1 95-122 Y106A (domain or fragment, S. pombe, UniProt O74958 95-122, looked up)
chain: GKYDFSRHCTDAGHSYEWPYFRSLRRES
notes: also called Mmi1 Y106A; source: E. coli BL21 (Gold), purified (Ni-chelating resin, size-exclusion chromatography); not shown: SUMO, N-terminal, kept
B10: SUMO-tagged Mmi1 95-122 Y110A (domain or fragment, S. pombe, UniProt O74958 95-122, looked up)
chain: GKYDFSRHCTDYGHSAEWPYFRSLRRES
notes: also called Mmi1 Y110A; source: E. coli BL21 (Gold), purified (Ni-chelating resin, size-exclusion chromatography); not shown: SUMO, N-terminal, kept
B11: SUMO-tagged Mmi1 95-122 Y114A (domain or fragment, S. pombe, UniProt O74958 95-122, looked up)
chain: GKYDFSRHCTDYGHSYEWPAFRSLRRES
notes: also called Mmi1 Y114A; source: E. coli BL21 (Gold), purified (Ni-chelating resin, size-exclusion chromatography); not shown: SUMO, N-terminal, kept
B12: GST-tagged Mmi1^1–122: purified GST-tagged Mmi1 amino-terminal fragment, residues 1–122 (protein, UniProt O74958 1-122, looked up, fragment)
chain: MSNTNFSTSRSSKSIPELPNLEALRSLWPPPSLNESGDTRSVWTTHTGEPVASSVLSTSGSNNFSSPLKRPAPESHDAPIGRRLMVDDPRLIKHGKYDFSRHCTDYGHSYEWPYFRSLRRES
modifications: GST tag

Key:
Erh1 (Erh1wt) = molecular target: T1, Erh1 (Erh1wt) (Schizosaccharomyces pombe, UniProt G2TRN4); experiment: Isothermal titration calorimetry (ITC), SUMO-tagged Mmi1 peptides titrated into wild-type Erh1; assay type: binding, S. pombe; details: for -TΔS / ΔH (binding enthalpy): Erh1wt; for ΔH (binding enthalpy): single-site model; for binding / affinity for Erh1 (in words): ITC (Supplementary Table 1; Fig. 1d, f), relative to Mmi1^95–122
T1 construct: A region of Erh1 (residues 1–104) was amplified by PCR; made in house; host or cells: Escherichia coli BL21 (Gold)
T1 sequence (G2TRN4 1-104): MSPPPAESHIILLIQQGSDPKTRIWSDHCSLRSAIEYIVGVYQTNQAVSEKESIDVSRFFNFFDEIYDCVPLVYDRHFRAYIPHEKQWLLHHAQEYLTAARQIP
Protocol: The titration protocol consisted of a single initial injection of 1 µl, followed by 19 injections of 2 µl SUMO-tagged Mmi1 peptides into the sample cell containing Erh1 protein. Thermodynamic data were analyzed with a single-site binding model using MicroCal PEAQ-ITC Analysis Software provided by the manufacturer.

[1] = molecular target: T2, Erh1 (residues 1-104), wild type (S. pombe, UniProt G2TRN4 1-104); experiment: ITC; SUMO-tagged Mmi1 peptides titrated into Erh1 in the sample cell; MicroCal iTC200, 293 K; 20 mM Tris-HCl pH 7.5, 150 mM NaCl; single-site binding model; details: both partners purified
T2 construct: Erh1, S. pombe, residues 1-104, amplified from the S. pombe genome, in a modified pET28a vector without thrombin site (p28a); also called Erh1wt; Enhancer of rudimentary homolog 1; source: E. coli BL21 (Gold), purified (Ni-chelating resin, size-exclusion chromatography)
T2 sequence (looked up): T1 sequence (G2TRN4 1-104)

Erh1 = experiment: GST pull-down of Erh1 with GST-tagged Mmi1 fragments, Coomassie; assay type: binding, S. pombe; details: GST-Mmi1 fusion incubated with Erh1, glutathione-agarose, SDS-PAGE
Source text: Fig. 1 Mmi1 interacts with Erh1 in a 2:2 stoichiometry. a Shown is a schematic representation of the domain architecture of Mmi1. The disorder score from DISOPRED3 Server[62] and the conservation score are shown below. The conservation score is generated by a Protein Residue Conservation Prediction Server[63] from the sequence alignment of Mmi1 orthologues from S. pombe, S. cryophilus, S. octosporus, and S. japonicus. b–d Interactions of GST tagged Mmi1 peptides (GST-Mmi1) with Erh1 visualized by Coomassie blue staining. The indicated GST-Mmi1 fusion proteins or GST alone were incubated with Erh1. The complexes were collected with glutathione-agarose resin and bound proteins were eluted and then subjected to SDS-PAGE. GST or GST-Mmi1 fusion proteins without Erh1 are shown as a negative control. Source data are provided as a Source Data file. e The raw ITC titration data of Erh1 with SUMO tagged Mmi1^95–122 and its fitting curve are shown. KD dissociation constant, DP differential power, N binding stoichiometry, ΔH binding enthalpy. f ITC fitting curves of Erh1 using SUMO tagged Mmi1^95–122 (magenta), Mmi1^106–122 (blue) and Mmi1^95–111 (green) are shown. g Size-exclusion analysis of Erh1 (magenta) and Erh1-Mmi1^95–122 (blue). Marker sizes are 62.9 KDa (Albumin), 46.7 KDa (Ovalbumin), 20.3 KDa (Chymotrypsinogen), 14.6 KDa (Ribonuclease A). Also shown are theoretical monomer sizes (kDa) of Erh1 protein and Mmi1^95–122 peptide TEXT PRINTED IN THE PICTURE: (e) Mmi1^95–122 - Erh1: KD (μM) 0.83±0.19; N (sites) 0.90±0.01; ΔH (kJ per mol) −106±3.02 | (f) Mmi1^95–122: Erh1 KD (μM): 0.83±0.19 | (f) Mmi1^106–122: Erh1 KD (μM): 9.94±1.19 | (f) Mmi1^95–111: Erh1 KD (μM): no binding | (g) Erh1: 13.2 kDa | (g) Mmi1^95–122: 3.5 kDa
A region of Erh1 (residues 1–104) was amplified by PCR from the S. pombe genome and cloned into a modified pET28a (Novagen) vector without a thrombin protease cleavage site (p28a). GST-Mmi1^YTH was sub-cloned from a Mmi1^YTH-p28a construct to a modified PGex-4T1 vector with a TEV protease cleavage site (Tev4T1). […]

[2] = ITC, 293 K, 20 mM Tris-HCl pH 7.5, 150 mM NaCl, SUMO-tagged Mmi1 peptide

Row | Molecule | -TΔS (Erh1 (Erh1wt); [2]) | ΔH (binding enthalpy) (Erh1 (Erh1wt); [2]) | Kd [1] | stoichiometry N [1] | further results
1 | Mmi1F99A: Mmi1 peptide mutant F99A ({SUMO}-GKYDASRHCTDYGHSYEWPYFRSLRRES; not fully specified) | 8.86 kJ per mol | -42.6±1.83 kJ per mol | – | – | binding / affinity for Erh1 (in words) (Erh1 (Erh1wt)): reduced affinities for Erh1
2 | Mmi1F115A: Mmi1 peptide mutant F115A ({SUMO}-GKYDFSRHCTDYGHSYEWPYARSLRRES; not fully specified) | 35.7 kJ per mol | -68.0±0.673 kJ per mol | – | – | binding / affinity for Erh1 (in words) (Erh1 (Erh1wt)): reduced affinities for Erh1
3 | Mmi1H108A: Mmi1 peptide mutant H108A ({SUMO}-GKYDFSRHCTDYGASYEWPYFRSLRRES; not fully specified) | -21.2 kJ per mol | -9.97±2.43 kJ per mol | – | – | –
4 | Mmi1R119A: Mmi1 peptide mutant R119A ({SUMO}-GKYDFSRHCTDYGHSYEWPYFRSLARES; not fully specified) | 13.1 kJ per mol | -46.3±1.28 kJ per mol | – | – | binding / affinity for Erh1 (in words) (Erh1 (Erh1wt)): reduced
5 | Mmi1S100A: Mmi1 peptide mutant S100A ({SUMO}-GKYDFARHCTDYGHSYEWPYFRSLRRES; not fully specified) | 6.04 kJ per mol | -36.0±3.16 kJ per mol | – | – | –
6 | Mmi1T104A: Mmi1 peptide mutant T104A ({SUMO}-GKYDFSRHCADYGHSYEWPYFRSLRRES; not fully specified) | 22.8 kJ per mol | -53.7±1.31 kJ per mol | – | – | –
7 | Mmi1Y97A: Mmi1 peptide mutant Y97A ({SUMO}-GKADFSRHCTDYGHSYEWPYFRSLRRES; not fully specified) | 13.8 kJ per mol | -46.1±1.20 kJ per mol | – | – | binding / affinity for Erh1 (in words) (Erh1 (Erh1wt)): reduced affinities for Erh1
8 | Mmi1Y106A: Mmi1 peptide mutant Y106A ({SUMO}-GKYDFSRHCTDAGHSYEWPYFRSLRRES; not fully specified) | 11.3 kJ per mol | -43.8±2.35 kJ per mol | – | – | –
9 | Mmi1Y110A: Mmi1 peptide mutant Y110A ({SUMO}-GKYDFSRHCTDYGHSAEWPYFRSLRRES; not fully specified) | 246 kJ per mol | -273±20.3 kJ per mol | – | – | –
10 | Mmi1Y114A: Mmi1 peptide mutant Y114A ({SUMO}-GKYDFSRHCTDYGHSYEWPAFRSLRRES; not fully specified) | 31.1 kJ per mol | -61.8±1.07 kJ per mol | – | – | binding / affinity for Erh1 (in words) (Erh1 (Erh1wt)): reduced affinities for Erh1
11 | Mmi1^95–111: truncated Mmi1 peptide, residues 95–111 ({SUMO″}-GKYDFSRHCTDYGHSYE; not fully specified) | – | – | – | – | binding / affinity for Erh1 (in words) (Erh1 (Erh1wt)): did not bind at all; KD (dissociation constant) (Erh1 (Erh1wt); text and figures 1e, 1f, 3e, Erh1, ITC, 293 K, 20 mM Tris-HCl pH 7.5, 150 mM NaCl, SUMO-tagged Mmi1 peptide): no binding
12 | Mmi1^106–122: further truncated Mmi1 fragment, residues 106–122 ({SUMO″}-YGHSYEWPYFRSLRRES; not fully specified) | 45.5 kJ per mol | -73.6±2.69 kJ per mol | – | – | binding / affinity for Erh1 (in words) (Erh1 (Erh1wt)): decreased binding to Erh1
13 | B1 | – | – | 9940 ± 1190 nM | 0.89 | –
14 | B2 | – | – | 1750 ± 317 nM | 1.27 | –
15 | B3 | – | – | 996 ± 355 nM | 1.38 | –
16 | B4 | – | – | 1800 ± 121 nM | 0.9 | –
17 | B5 | – | – | 2780 ± 2150 nM | 1.36 | –
18 | B6 | – | – | 1220 ± 270 nM | 1.12 | –
19 | B7 | – | – | 4730 ± 1620 nM | 1.36 | –
20 | B8 | – | – | 3270 ± 425 nM | 1.45 | –
21 | B9 | – | – | 1630 ± 473 nM | 1.36 | –
22 | B10 | – | – | 15000 ± 2710 nM | 1 | –
23 | B11 | – | – | 3520 ± 323 nM | 0.97 | –
24 | B12 | – | – | – | – | interaction with Erh1 (GST pull-down) (Erh1): bound efficiently to Erh1
